The source of these data is publication PMC10834949.

The target in experiment [1] is Aβ42 fibrils. Briefly: NMR titration; solution 1H-15N HSQC of 74 uM 15N-labelled BRICHOS before and after adding sonicated unlabelled Aβ42 fibrils at 1:1 (related to monomeric Aβ42); 20 mM sodium phosphate, 0.2 mM EDTA, pH 7.4, 25 °C; loss of signal intensity taken as the bound population.
For experiment [2], the target named is Aβ42 fibrils. Kind of experiment: co-sedimentation; sample of co-incubated BRICHOS-Aβ42 fibrils centrifuged; BRICHOS in the supernatant measured by SDS-PAGE.
For experiment [3], the target named is Aβ42 fibrils. Briefly: SPR; sonicated Aβ42 fibrils immobilised by amine coupling on a C1 chip (BIAcore 3000); R221E Bri2 BRICHOS injected at 0.195-50 uM in HBS-E (10 mM HEPES, 150 mM NaCl, 0.2 mM EDTA, pH 7.5), 30 uL/min; two-phase association and two-phase dissociation model, global fit; apparent constants. (In general: In SPR one partner is held on a chip, and binding of the other changes the refractive index at the surface.)

Regarding “recombinant human Bri2 BRICHOS R221E monomer (domain or fragment)”, in the experiment with Aβ42 fibrils [1], the percent of HSQC signal intensity left after adding fibrils at 1:1 was 90%, the percent of total BRICHOS bound lay within 5 to 10% and the relative signal attenuation (population of bound BRICHOS) amounted to 10%. In the experiment with Aβ42 fibrils [2], the percent of BRICHOS in the soluble fraction was 95% and the percent of total BRICHOS bound lay within 5 to 10%. The KD app of the strong phase (two-phase model) with Aβ42 fibrils [3] was 12.9 nM.
